Publication PMC5706988

Biological target: zonula occludens-1 (ZO-1) (UniProt Q07157)
Test: anti-ZO-1 co-IP, Cx43 blot
Conditions: reference: wild type; sites S373

## connexin43 (Cx43) (from UniProt P08050) S373A
  binding against the reference: stronger
